Data set [1] has as its target CD38 TALEN Left (artificial) (UniProt Q56830). The experiment in a line: cell_activity. As to conditions: paired with CD38 TALEN Right; simultaneous electroporation with TRAC and CD52 TALEN.
The target in data set [2] is CD38 TALEN Right (artificial) (UniProt Q56830). The experiment in a line: cell_activity. As to conditions: paired with CD38 TALEN Left; simultaneous electroporation with TRAC and CD52 TALEN.

As for CD38 left half-site, the activity (% CD38-negative cells) in data set [1] stood at 66.1.

CD38 right half-site showed an activity (% CD38-negative cells) in data set [2] of 66.1.

(Values after patent US20200208174.)
